Experimental data as given in US20250122266A1 (TEXAS A AND M UNIVERSITY SYSTEM, published 2025).

Tests used:
[1] = biological target: T1, NE-tethered mCh-lamin A (UniProt P02545 1-664); experiment: nucleoplasmic GFP signal in HeLa cells over dark-light cycles
[2] = biological target: T1, NE-tethered mCh-lamin A; experiment: NE/NP ratio of GFP signal in HeLa cells, before and after light
[3] = biological target: T2, plasma membrane targeting mCh (mCh-CAAX); experiment: cytosol-to-plasma-membrane translocation in HeLa cells under light
T2 construct: also called mCh tethered to PM

[4] = biological target: mCh tethered to early endosome [EE]; experiment: cytosol-to-early-endosome translocation in HeLa cells under light

T1 sequence (P02545 whole entry): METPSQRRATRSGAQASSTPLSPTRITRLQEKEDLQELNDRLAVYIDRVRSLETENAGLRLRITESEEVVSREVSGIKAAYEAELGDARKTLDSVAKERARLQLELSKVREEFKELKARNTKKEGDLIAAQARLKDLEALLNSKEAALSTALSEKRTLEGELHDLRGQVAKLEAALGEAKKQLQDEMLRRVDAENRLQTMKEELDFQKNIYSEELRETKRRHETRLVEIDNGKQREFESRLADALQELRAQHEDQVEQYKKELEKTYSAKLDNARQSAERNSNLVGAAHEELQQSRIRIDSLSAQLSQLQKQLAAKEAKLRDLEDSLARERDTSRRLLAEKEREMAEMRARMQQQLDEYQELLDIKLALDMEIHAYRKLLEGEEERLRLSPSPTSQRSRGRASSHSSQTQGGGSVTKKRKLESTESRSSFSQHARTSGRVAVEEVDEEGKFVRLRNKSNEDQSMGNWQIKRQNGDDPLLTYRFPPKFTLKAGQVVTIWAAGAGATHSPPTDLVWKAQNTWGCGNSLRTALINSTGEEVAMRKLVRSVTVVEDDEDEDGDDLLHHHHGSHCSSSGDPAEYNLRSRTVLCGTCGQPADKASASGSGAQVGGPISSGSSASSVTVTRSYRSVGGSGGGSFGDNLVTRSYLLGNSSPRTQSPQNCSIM

Binder	half-life of light-triggered translocation to the antigen (t½, on) [1]	light-induced change in the NE/NP ratio [2]	fold increase in the signal-to-background ratio against 1x sunbody [3]	fold increase in the signal-to-background ratio against 1x sunbody [4]
GFP-sunbody (anti-mCherry nanobody LaM8 with LOV2 at S0 and S3) (VHH, not shown: large carriers, also called S0+S3; anti-mCh GFP-tagged sunbody) LATTLERIEKNFVITDPRLPDNPIIFASDSFLQLTEYSREEILGRNCRFLQGPETDRATVRKIRDAIDNQTEVTVQLINYTKSGKKFWNLFHLQPMRDQKGDVQYFIGVQLDGTEHVRDAAEREGVMLIKKTAENIDEAAKELKLMAQVQLVESGGGLVQAGGSLRLSCAVSGRPFSEYNLGWFRQAPGKEREFVARIRSSGTTVYTDSVKGRFSASRDNALERIEKNFVITDPRLPDNPIIFASDSFLQLTEYSREEILGRNCRFLQGPETDRATVRKIRDAIDNQTEVTVQLINYTKSGKKFWNLFHLQPMRDQKGDVQYFIGVQLDGTEHVRDAAEREGVMLIKKTAENIDEAAKNMGYLQLNSLEPEDTAVYYCAMSRVDTDSPAFYDYWGQGTQVTVSTPRS	2.6 s	> 80%	–	–
GFP-2xsunbody (dimeric concatemer of sunbody) (VHH, not shown: large carriers, also called tandem sunbody) LATTLERIEKNFVITDPRLPDNPIIFASDSFLQLTEYSREEILGRNCRFLQGPETDRATVRKIRDAIDNQTEVTVQLINYTKSGKKFWNLFHLQPMRDQKGDVQYFIGVQLDGTEHVRDAAEREGVMLIKKTAENIDEAAKELKLMAQVQLVESGGGLVQAGGSLRLSCAVSGRPFSEYNLGWFRQAPGKEREFVARIRSSGTTVYTDSVKGRFSASRDNALERIEKNFVITDPRLPDNPIIFASDSFLQLTEYSREEILGRNCRFLQGPETDRATVRKIRDAIDNQTEVTVQLINYTKSGKKFWNLFHLQPMRDQKGDVQYFIGVQLDGTEHVRDAAEREGVMLIKKTAENIDEAAKNMGYLQLNSLEPEDTAVYYCAMSRVDTDSPAFYDYWGQGTQVTVSTPRSLATTLERIEKNFVITDPRLPDNPIIFASDSFLQLTEYSREEILGRNCRFLQGPETDRATVRKIRDAIDNQTEVTVQLINYTKSGKKFWNLFHLQPMRDQKGDVQYFIGVQLDGTEHVRDAAEREGVMLIKKTAENIDEAAKELKLMAQVQLVESGGGLVQAGGSLRLSCAVSGRPFSEYNLGWFRQAPGKEREFVARIRSSGTTVYTDSVKGRFSASRDNALERIEKNFVITDPRLPDNPIIFASDSFLQLTEYSREEILGRNCRFLQGPETDRATVRKIRDAIDNQTEVTVQLINYTKSGKKFWNLFHLQPMRDQKGDVQYFIGVQLDGTEHVRDAAEREGVMLIKKTAENIDEAAKNMGYLQLNSLEPEDTAVYYCAMSRVDTDSPAFYDYWGQGTQVTVSTPRS	–	–	> 2 fold	> 2 fold
